Assay results as given in US20120135912A1 (PERSEID THERAPEUTICS, published 2012).
Where a chain is given by its changes, count along the chain named.

B1: R1R7 (ligand)
2D-VCAM-1 variant polypeptide: MFKIETTPESRYLAQIGDSVSLTCSTTGCESPFFFWRPLLDSPLNGKVTNEGTTSTLTMNPVSFGNEHSYLCTARCESRKLEKGIQVEIYSFPKDPEIHLSGPLEAGKPITVKCSVADVYPFDRLEIDLLKGDHLMKSQEFLEDADRKSLETKSLEVTFTPVIEDIGKVLVCRAKLHIDEMDSVPTVRQAVKELQVYISP
notes: also called 146R1R7
B2: R1R5 (ligand)
2D-VCAM-1 variant polypeptide: B1 2D-VCAM-1 variant polypeptide with L40I, K80S
notes: also called 146R1R5
B3: R1R3 (ligand)
2D-VCAM-1 variant polypeptide: B1 2D-VCAM-1 variant polypeptide with P38T, K80S
notes: also called 146R1R3
B4: 146R7 (ligand)
chain: FKIETTPESRYLAQIGDSVSLTCSTTGCESPLFFWRPLLDSPLNGKVTNEGTTSTLTMNPVSFGNEHSYLCTARCESRKLEKGIQVEIYSFPKDPEIHLSGPLEAGKPITVKCSVADVYPFDRLEIDLLKGDHLMKSQEFLEDADRKSLETKSLEVTFTPVIEDIGKVLVCRAKLHIDEMDSVPTVRQAVKELQVYISPGGGSDYKDDDDKGGGSDYKDDDDKGGGSDYKDDDDKGS
notes: Crude CHO-S supernatant, 3x spacer-FLAG tagged
B5: 146R13 (ligand)
chain: B4 chain with L32F
notes: as for B4
B6: 146R11 (ligand)
chain: B4 chain with L38Q, R74T
notes: as for B4
B7: 146R14 (ligand)
chain: B4 chain with L39I
notes: as for B4
B8: 146R3 (ligand)
chain: B4 chain with P37T, K79S
notes: as for B4
B9: 146R15 (ligand)
chain: B4 chain with L32F, L38Q
notes: as for B4
B10: 146R10 (ligand)
chain: B4 chain with L32F, R74T
notes: as for B4
B11: 146R6 (ligand)
chain: B4 chain with R74T, K79S
notes: as for B4
B12: 146R17 (ligand)
chain: B4 chain with L32F, L39I
notes: as for B4
B13: 146R8 (ligand)
chain: B4 chain with R74T
notes: as for B4
B14: 146R23 (ligand)
chain: B4 chain with L32F, P37T
notes: as for B4
B15: 146R5 (ligand)
chain: B4 chain with L39I, K79S
notes: as for B4
B16: 146R20 (ligand)
chain: B4 chain with L32F, L38Q, L39I, K79S
notes: as for B4
B17: 146R19 (ligand)
chain: B4 chain with L32F, L38Q, L39I
notes: as for B4
B18: 146R22 (ligand)
chain: B4 chain with P37T
notes: as for B4
B19: 146R16 (ligand)
chain: B4 chain with L32F, L39I, K79S
notes: Crude CHO-S supernatant, 3x spacer-FLAG tagged; The cell prints N: 131
B20: 146R18 (ligand)
chain: B4 chain with L32F, L39I, R74T
notes: as for B4
B21: 146R12 (ligand)
chain: B4 chain with L32F, F34S, R74T
notes: as for B4
B22: 146R2 (ligand)
chain: B4 chain with F34S, K79S
notes: as for B4
B23: 146R4 (ligand)
chain: B4 chain with L38Q, K79S
notes: as for B4
B24: 146R1 (ligand)
chain: B4 chain with L32F, K79S
notes: as for B4
B25: 146R21 (ligand)
chain: B4 chain with L32F, P37T, K79S
notes: Crude CHO-S supernatant, 3x spacer-FLAG tagged; also called I46R21
B26: 146R9 (ligand)
chain: B4 chain with L32F, L38Q, K79S
notes: as for B4
B27: 146R0 (Clone 146 with three spacer-FLAG tags, CHO-S supernatant) (ligand)
chain: FKIETTPESRYLAQIGDSVSLTCSTTGCESPLFFWRPLLDSPLNGKVTNEGTTSTLTMNPVSFGNEHSYLCTARCESRSLEKGIQVEIYSFPKDPEIHLSGPLEAGKPITVKCSVADVYPFDRLEIDLLKGDHLMKSQEFLEDADRKSLETKSLEVTFTPVIEDIGKVLVCRAKLHIDEMDSVPTVRQAVKELQVYISPGGGSDYKDDDDKGGGSDYKDDDDKGGGSDYKDDDDK
notes: assayed as concentrated, filtered crude supernatant
B28: human 2D-VCAM-1 (ligand)
chain: FKIETTPESRYLAQIGDSVSLTCSTTGCESPFFSWRTQIDSPLNGKVTNEGTTSTLTMNPVSFGNEHSYLCTATCESRKLEKGIQVEIYSFPKDPEIHLSGPLEAGKPITVKCSVADVYPFDRLEIDLLKGDHLMKSQEFLEDADRKSLETKSLEVTFTPVIEDIGKVLVCRAKLHIDEMDSVPTVRQAVKELQVYISP
notes: also called wild type 2D-VCAM-1; wt-2D-VCAM-1; not shown: His tag
B29: 2D-VCAM-1 variant Clone 151 (ligand)
chain: B28 chain with F32S, S34Y, T37P, I39L, S41A, T74A, K79R
notes: not shown: His tag

What was measured:
[1] = molecular target: T1, human LPAM-1-Fc (alpha4-Fc/beta7-Fc heterodimer) (human); assay: SPR (BIACORE) as in Example 12, polypeptide purified from E. coli as analyte on captured LPAM-1-Fc; KD drawn as bars (Example 20)
T1 construct: Soluble heterodimer from CHO cells, Protein A purified

[2] = molecular target: T2, human VLA4-Fc (alpha4-Fc/beta1-Fc heterodimer) (human); assay: SPR (BIACORE), crude CHO-S supernatant on VLA4-Fc
T2 construct: Soluble heterodimer from CHO cells, Protein A purified; also called VLA-Fc

[3] = molecular target: T2, human VLA4-Fc (alpha4-Fc/beta1-Fc …); assay: SPR (BIACORE), VLA4-Fc captured by anti-human IgG, 1 mM MnCl2, 1:1 Langmuir
Description: (§1) The kinetic 2D-VCAM-1 assay measures binding kinetics of a dimeric ligand (e.g., VLA-Fc fusion protein or LPAM-1-Fc fusion protein) coated to sensor chips and monomeric analyte (e.g., 2D-VCAM-1 variant polypeptides) in the mobile phase. Goat anti-human IgG antibody (Jackson ImmunoResearch, Catalog No. 105-005-098) was immobilized on CM-5 sensor chips (GE Healthcare, Catalog No. BR-1000-14) according to the manufacturer's protocol. Antibody was diluted to 30 μg/ml in immobilization buffer (10 mM sodium acetate, pH 5.0 (GE Healthcare, Catalog No. BR-1003-51)). […] Un-reacted sites were quenched with 35 μl of 1 M ethanolamine-HCl pH 8.5 (GE Healthcare, Catalog No. BR-1000-50). This procedure typically yielded 15,000 response units (RU) of coupled antibody. VLA4-Fc or LPAM-1-Fc, prepared as described in Examples 3 and 4, respectively, were bound to antibody-coated sensor chips by injection of 20 μl of ligand solution (20 μg/ml protein in HBS-P-Mn buffer at a flow rate of 10 μl/min). Ligand capture levels were typically 200-300 RU. 2D-VCAM-1 variant polypeptides were diluted in HBS-P-Mn and flowed over ligand-coated sensor chips for 2 min at 30 μl/min, followed by 5 min incubation with in HBS-P-Mn containing no protein at the same flow rate. For 2D-VCAM-1 variant polypeptides having very slow dissociation rates from VLA4-Fc or LPAM-1-Fc, kinetic assays were also conducted using longer dissociation times (e.g., 20 min). Rmax signal levels for 2D-VCAM-1 variant polypeptides ranged from approximately 5-25 RU. Regeneration between cycles was performed by 200 sec incubation with 10 mM glycine buffer (pH 1.7) at 50 μl/min. New chips were subjected to 4-5 cycles of capture/binding/regeneration prior to use in actual experiments. Data from a reference cell containing goat anti-human IgG capture antibody alone was subtracted from data obtained from flow cells containing captured VLA4-Fc or LPAM-1-Fc. Typically, 8 dilutions of 2D-VCAM-1 variant polypeptides ranging from 150 nM to 0.069 nM were analyzed against a blank reference (HBS-P-Mn buffer alone).

[4] = molecular target: T1, human LPAM-1-Fc (alpha4-Fc/beta7-Fc …); assay: SPR (BIACORE), LPAM-1-Fc captured by anti-human IgG, 1 mM MnCl2, 1:1 Langmuir
Description: as §1

[5] = molecular target: T2, human VLA4-Fc (alpha4-Fc/beta1-Fc …); assay: ELISA, VLA4-Fc coated, 1 mM MnCl2; from EC50 values
Description: The relative binding affinities of various 2D-VCAM-1 variants to immobilized VLA4-Fc (α4-β1-Fc) heterodimer, relative to a control protein (e.g., Q38L-2D-VCAM-1 or to human 2D-VCAM-1), were deter using a solid-phase ELISA assay. MAXISORP™ ELISA plates (NUNC) were coated overnight at 4° C. with 50 ul VLA4-Fc heterodimer, 2 ug/ml in TBS-M (TBS (25 mM Tris-HCl pH 7.5, 150 mM NaCl) with 1 mM MnCl2), washed with TBS-T (TBS with 0.05% TWEEN-20), blocked with 200 ul 3% milk in TBS-M for 1 h at room temperature, and washed again with TBS-T. A four-fold dilution series of the purified 2D-VCAM variants to be assayed was made in COSTAR U-bottom plates in TBS-TMC (TBS with 0.05% Tween-20, 1 mM MnCl2, and 1% casein; Sigma) with a starting concentration of 8.2 uM (200 ug/ml). The dilution series was transferred into the ELISA plate which was incubated at room temperature for 2 h and subsequently washed with TBS-T. Bound 2D-VCAM protein was detected by incubation with 0.5 ug/ml of biotinylated anti-human VCAM antibody (R&D Systems, Catalog No. BAF809) in TBS-TMC for 1 h at room temperature followed by a TBS-MT (TBS plus 1 mM MnCl2 and 0.02% TWEEN-20) wash and subsequent incubation with 1:2000 dilution of streptavidin-HRP (BD Biosciences, Catalog No. 554066) in TBS-TMC for 30 min at room temperature. […] Typical development times ranged from […] and development was stopped by addition of 50 ul 2M H₂SO₄ (EM, Catalog No. SX1244-75). […] Fold-improvement in binding was calculated relative to a control protein (e.g., Q38L-2D-VCAM-1 or human 2D-VCAM-1) assayed on the same plate.

T1 sequence (chain, as listed by the source limits assumed, chain 1 of 2): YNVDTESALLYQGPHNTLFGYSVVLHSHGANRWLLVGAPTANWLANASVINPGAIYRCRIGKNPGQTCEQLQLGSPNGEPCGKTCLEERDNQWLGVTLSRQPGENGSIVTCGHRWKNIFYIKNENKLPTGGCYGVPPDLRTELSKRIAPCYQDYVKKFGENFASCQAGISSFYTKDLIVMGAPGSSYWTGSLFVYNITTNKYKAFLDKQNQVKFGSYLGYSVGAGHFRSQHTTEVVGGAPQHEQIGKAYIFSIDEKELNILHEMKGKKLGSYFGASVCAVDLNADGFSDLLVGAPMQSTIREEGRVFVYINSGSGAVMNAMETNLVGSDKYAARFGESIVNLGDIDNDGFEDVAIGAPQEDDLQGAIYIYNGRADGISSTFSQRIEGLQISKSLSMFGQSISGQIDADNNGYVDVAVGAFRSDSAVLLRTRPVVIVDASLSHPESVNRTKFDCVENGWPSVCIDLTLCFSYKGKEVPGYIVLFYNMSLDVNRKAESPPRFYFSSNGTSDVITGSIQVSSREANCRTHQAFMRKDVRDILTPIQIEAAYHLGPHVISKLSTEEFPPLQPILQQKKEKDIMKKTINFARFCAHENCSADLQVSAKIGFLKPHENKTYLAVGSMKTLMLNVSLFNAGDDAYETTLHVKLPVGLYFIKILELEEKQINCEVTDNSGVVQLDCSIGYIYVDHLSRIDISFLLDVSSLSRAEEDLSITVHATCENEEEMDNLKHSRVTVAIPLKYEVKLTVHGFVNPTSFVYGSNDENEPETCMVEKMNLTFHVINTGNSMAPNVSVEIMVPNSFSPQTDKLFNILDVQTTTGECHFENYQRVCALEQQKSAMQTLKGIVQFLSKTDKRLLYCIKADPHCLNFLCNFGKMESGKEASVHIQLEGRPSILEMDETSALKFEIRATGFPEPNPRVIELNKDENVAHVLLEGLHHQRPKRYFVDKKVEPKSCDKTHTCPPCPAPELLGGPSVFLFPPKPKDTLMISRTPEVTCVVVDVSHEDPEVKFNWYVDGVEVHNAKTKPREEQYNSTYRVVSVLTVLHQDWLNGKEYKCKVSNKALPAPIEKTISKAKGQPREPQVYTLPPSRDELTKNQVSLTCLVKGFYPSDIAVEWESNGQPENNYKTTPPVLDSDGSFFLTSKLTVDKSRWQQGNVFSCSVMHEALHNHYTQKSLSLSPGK
T1 sequence (chain, as listed by the source limits assumed, chain 2 of 2): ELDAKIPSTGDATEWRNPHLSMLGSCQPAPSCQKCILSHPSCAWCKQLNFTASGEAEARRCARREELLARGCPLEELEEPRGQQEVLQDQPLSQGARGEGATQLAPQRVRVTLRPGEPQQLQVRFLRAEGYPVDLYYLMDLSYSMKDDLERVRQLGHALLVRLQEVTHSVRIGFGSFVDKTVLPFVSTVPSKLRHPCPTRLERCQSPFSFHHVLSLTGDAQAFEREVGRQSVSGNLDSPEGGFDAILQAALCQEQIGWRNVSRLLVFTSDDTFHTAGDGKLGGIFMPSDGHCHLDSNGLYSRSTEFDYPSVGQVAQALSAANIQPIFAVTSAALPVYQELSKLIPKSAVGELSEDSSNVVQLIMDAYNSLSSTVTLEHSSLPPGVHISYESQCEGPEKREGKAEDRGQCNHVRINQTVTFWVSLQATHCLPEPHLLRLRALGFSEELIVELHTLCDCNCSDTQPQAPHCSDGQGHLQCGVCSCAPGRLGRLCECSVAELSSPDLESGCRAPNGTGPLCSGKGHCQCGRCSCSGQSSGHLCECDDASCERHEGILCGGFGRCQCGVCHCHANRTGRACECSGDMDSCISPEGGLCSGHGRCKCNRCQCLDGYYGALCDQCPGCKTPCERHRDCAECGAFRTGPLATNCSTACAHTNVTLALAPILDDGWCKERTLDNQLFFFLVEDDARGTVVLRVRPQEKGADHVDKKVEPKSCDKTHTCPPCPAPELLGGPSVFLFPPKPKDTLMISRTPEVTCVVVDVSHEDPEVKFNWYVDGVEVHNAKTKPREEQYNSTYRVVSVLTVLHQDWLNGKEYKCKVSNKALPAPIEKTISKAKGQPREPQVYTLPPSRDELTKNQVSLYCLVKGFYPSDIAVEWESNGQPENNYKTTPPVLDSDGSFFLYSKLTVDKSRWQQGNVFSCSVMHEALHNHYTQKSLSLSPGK
T2 sequence (chain, as listed by the source limits assumed, form in doubt, chain 1 of 2): as the sequence (chain, as listed by the source limits assumed, chain 1 of 2) above
T2 sequence (chain, as listed by the source limits assumed, form in doubt, chain 2 of 2): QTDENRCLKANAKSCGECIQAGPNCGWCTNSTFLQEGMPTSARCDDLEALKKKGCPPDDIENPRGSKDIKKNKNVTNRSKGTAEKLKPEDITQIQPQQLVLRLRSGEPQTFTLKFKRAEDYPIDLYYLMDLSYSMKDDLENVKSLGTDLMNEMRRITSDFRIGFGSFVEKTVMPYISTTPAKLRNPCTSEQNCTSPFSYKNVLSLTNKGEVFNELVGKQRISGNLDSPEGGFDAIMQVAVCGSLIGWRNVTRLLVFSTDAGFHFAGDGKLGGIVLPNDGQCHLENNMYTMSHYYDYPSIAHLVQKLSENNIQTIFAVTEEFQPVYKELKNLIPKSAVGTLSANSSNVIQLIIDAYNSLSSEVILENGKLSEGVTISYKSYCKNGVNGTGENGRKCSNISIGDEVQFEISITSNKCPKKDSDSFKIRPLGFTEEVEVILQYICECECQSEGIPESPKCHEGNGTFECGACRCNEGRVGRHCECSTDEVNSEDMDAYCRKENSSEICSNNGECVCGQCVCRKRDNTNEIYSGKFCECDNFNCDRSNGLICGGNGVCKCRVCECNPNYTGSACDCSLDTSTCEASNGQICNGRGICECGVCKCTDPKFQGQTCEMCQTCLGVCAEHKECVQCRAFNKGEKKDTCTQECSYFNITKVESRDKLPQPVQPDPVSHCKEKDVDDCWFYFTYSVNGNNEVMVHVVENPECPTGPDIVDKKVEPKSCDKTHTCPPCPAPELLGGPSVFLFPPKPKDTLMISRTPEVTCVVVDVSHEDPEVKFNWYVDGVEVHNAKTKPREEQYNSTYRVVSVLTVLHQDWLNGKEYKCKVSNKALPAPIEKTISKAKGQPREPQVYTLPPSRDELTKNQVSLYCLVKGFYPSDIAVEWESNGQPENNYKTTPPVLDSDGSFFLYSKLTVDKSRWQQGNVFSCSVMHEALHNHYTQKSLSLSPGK

Binder	fold weaker binding relative to 146R0 (KD(variant)/KD(146R0)) [2] [fold]	further results
B1		binding result [1]: binds
B2		binding result [1]: binds
B3		binding result [1]: binds
B4	1	
B5	2.3	
B6	25.9	
B7	1.5	
B8	1.3	
B9	5.3	
B10	2.7	
B11	1.8	
B12	2.8	
B13	1.7	
B14	6.1	
B15	1.2	
B16	9.3	
B17	40	
B18	1.6	
B19	1.1	
B20	6.3	
B21	21.7	
B22	2.7	
B23	2.6	
B24	1.1	
B25	1	
B26	2	
B27	1	
B28		Kd [3]: 15.2 nM; binding affinity for VLA4-Fc relative to human 2D-VCAM-1 [3]: 1 fold; Kd [4]: 248 nM; binding affinity for LPAM-1-Fc relative to human 2D-VCAM-1 [4]: 1 fold
B29		fold-improvement in binding relative to Q38L-2D-VCAM-1 [5]: 2 fold; fold-improvement in binding relative to human 2D-VCAM-1 [5]: 16 fold
